The values below come from patent US5871901.

Data set [1] deals with DP-1/E2F-1 heterodimer (murine).
In data set [2] the test system is DP-1/E2F-1 + orf 6/7 (in SL2 cells) (Mus musculus? / Homo sapiens? / adenovirus type 5). Briefly: cell_activity. The conditions noted are these: enhancement by orf 6/7 over DP-1/E2F-1.

On to “Ad5 orf 6/7 protein expressed from pE4 (complete Ad5 orf 6/7 cDNA)”, for which the transcriptional activity of the adenovirus E2a promoter (pE2a CAT reporter, SL2 cells) in data set [1] came to 2 fold.

Take “E2a promoter (-96 to +68), two E2F sites”: in data set [2], the activity is 2 fold.
